Starred links: 1 amine or outer side, 2 acyl side, 3 side chain; linkers in the order of their positions; H or OH if unused. Non-standard residues stand in square brackets, D forms with d. Groups on a side chain read outwards from the residue. No end group written: not given here. *: point of attachment. C18 diacid = O=C(O)CCCCCCCCCCCCCCCCC(=O)*; γGlu = O=C(O)[C@H](CCC(=O)[*:2])N[*:1]; αMeF = C[C@](N)(Cc1ccccc1)C(=O)O; AEEA = NCCOCCOCC(=O)O; Aib = CC(C)(N)C(=O)O

To fix the notation:
B1: Peptide 34 (peptide)
peptide: H[Aib]QGTFTSDVSK[αMeF]LDSK([AEEA-AEEA-γGlu-C18 diacid])RAQDFVQWLL[Aib]E-OH
modifications: N-terminus assumed
SMILES: CC(C)C[C@H](NC(=O)[C@H](Cc1c[nH]c2ccccc12)NC(=O)[C@H](CCC(N)=O)NC(=O)[C@@H](NC(=O)[C@H](Cc1ccccc1)NC(=O)[C@H](CC(=O)O)NC(=O)[C@H](CCC(N)=O)NC(=O)[C@H](C)NC(=O)[C@H](CCCNC(=N)N)NC(=O)[C@H](CCCCNC(=O)COCCOCCNC(=O)COCCOCCNC(=O)CC[C@H](NC(=O)CCCCCCCCCCCCCCCCC(=O)O)C(=O)O)NC(=O)[C@H](CO)NC(=O)[C@H](CC(=O)O)NC(=O)[C@H](CC(C)C)NC(=O)[C@](C)(Cc1ccccc1)NC(=O)[C@H](CCCCN)NC(=O)[C@H](CO)NC(=O)[C@@H](NC(=O)[C@H](CC(=O)O)NC(=O)[C@H](CO)NC(=O)[C@@H](NC(=O)[C@H](Cc1ccccc1)NC(=O)[C@@H](NC(=O)CNC(=O)[C@H](CCC(N)=O)NC(=O)C(C)(C)NC(=O)[C@@H](N)Cc1c[nH]cn1)[C@@H](C)O)[C@@H](C)O)C(C)C)C(C)C)C(=O)N[C@@H](CC(C)C)C(=O)NC(C)(C)C(=O)N[C@@H](CCC(=O)O)C(=O)O
B2: Peptide 37 (peptide)
peptide: H[Aib]QGTFTSDVSK[αMeF]LDSK([AEEA-AEEA-γGlu-C18 diacid])RAEDFVQWLL[Aib]T-OH
modifications: N-terminus assumed
SMILES: CC(C)C[C@H](NC(=O)[C@H](Cc1c[nH]c2ccccc12)NC(=O)[C@H](CCC(N)=O)NC(=O)[C@@H](NC(=O)[C@H](Cc1ccccc1)NC(=O)[C@H](CC(=O)O)NC(=O)[C@H](CCC(=O)O)NC(=O)[C@H](C)NC(=O)[C@H](CCCNC(=N)N)NC(=O)[C@H](CCCCNC(=O)COCCOCCNC(=O)COCCOCCNC(=O)CC[C@H](NC(=O)CCCCCCCCCCCCCCCCC(=O)O)C(=O)O)NC(=O)[C@H](CO)NC(=O)[C@H](CC(=O)O)NC(=O)[C@H](CC(C)C)NC(=O)[C@](C)(Cc1ccccc1)NC(=O)[C@H](CCCCN)NC(=O)[C@H](CO)NC(=O)[C@@H](NC(=O)[C@H](CC(=O)O)NC(=O)[C@H](CO)NC(=O)[C@@H](NC(=O)[C@H](Cc1ccccc1)NC(=O)[C@@H](NC(=O)CNC(=O)[C@H](CCC(N)=O)NC(=O)C(C)(C)NC(=O)[C@@H](N)Cc1c[nH]cn1)[C@@H](C)O)[C@@H](C)O)C(C)C)C(C)C)C(=O)N[C@@H](CC(C)C)C(=O)NC(C)(C)C(=O)N[C@H](C(=O)O)[C@@H](C)O
B3: Peptide 519 (peptide)
peptide: H[Aib]QGTFTSDVSK[αMeF]LDTK([γGlu-γGlu-AEEA-AEEA-γGlu-γGlu-C18 diacid])RARDFVQWLLE[Aib]G-OH
modifications: N-terminus assumed
SMILES: CC(C)C[C@H](NC(=O)[C@H](Cc1c[nH]c2ccccc12)NC(=O)[C@H](CCC(N)=O)NC(=O)[C@@H](NC(=O)[C@H](Cc1ccccc1)NC(=O)[C@H](CC(=O)O)NC(=O)[C@H](CCCNC(=N)N)NC(=O)[C@H](C)NC(=O)[C@H](CCCNC(=N)N)NC(=O)[C@H](CCCCNC(=O)CC[C@H](NC(=O)CC[C@H](NC(=O)COCCOCCNC(=O)COCCOCCNC(=O)CC[C@H](NC(=O)CC[C@H](NC(=O)CCCCCCCCCCCCCCCCC(=O)O)C(=O)O)C(=O)O)C(=O)O)C(=O)O)NC(=O)[C@@H](NC(=O)[C@H](CC(=O)O)NC(=O)[C@H](CC(C)C)NC(=O)[C@](C)(Cc1ccccc1)NC(=O)[C@H](CCCCN)NC(=O)[C@H](CO)NC(=O)[C@@H](NC(=O)[C@H](CC(=O)O)NC(=O)[C@H](CO)NC(=O)[C@@H](NC(=O)[C@H](Cc1ccccc1)NC(=O)[C@@H](NC(=O)CNC(=O)[C@H](CCC(N)=O)NC(=O)C(C)(C)NC(=O)[C@@H](N)Cc1c[nH]cn1)[C@@H](C)O)[C@@H](C)O)C(C)C)[C@@H](C)O)C(C)C)C(=O)N[C@@H](CC(C)C)C(=O)N[C@@H](CCC(=O)O)C(=O)NC(C)(C)C(=O)NCC(=O)O
B4: Peptide 39 (peptide)
peptide: H[Aib]QGTFTSDVSK[αMeF]LDSK([AEEA-AEEA-γGlu-C18 diacid])RAQDFVRWLL[Aib]TE-OH
modifications: N-terminus assumed
SMILES: CC(C)C[C@H](NC(=O)[C@H](Cc1c[nH]c2ccccc12)NC(=O)[C@H](CCCNC(=N)N)NC(=O)[C@@H](NC(=O)[C@H](Cc1ccccc1)NC(=O)[C@H](CC(=O)O)NC(=O)[C@H](CCC(N)=O)NC(=O)[C@H](C)NC(=O)[C@H](CCCNC(=N)N)NC(=O)[C@H](CCCCNC(=O)COCCOCCNC(=O)COCCOCCNC(=O)CC[C@H](NC(=O)CCCCCCCCCCCCCCCCC(=O)O)C(=O)O)NC(=O)[C@H](CO)NC(=O)[C@H](CC(=O)O)NC(=O)[C@H](CC(C)C)NC(=O)[C@](C)(Cc1ccccc1)NC(=O)[C@H](CCCCN)NC(=O)[C@H](CO)NC(=O)[C@@H](NC(=O)[C@H](CC(=O)O)NC(=O)[C@H](CO)NC(=O)[C@@H](NC(=O)[C@H](Cc1ccccc1)NC(=O)[C@@H](NC(=O)CNC(=O)[C@H](CCC(N)=O)NC(=O)C(C)(C)NC(=O)[C@@H](N)Cc1c[nH]cn1)[C@@H](C)O)[C@@H](C)O)C(C)C)C(C)C)C(=O)N[C@@H](CC(C)C)C(=O)NC(C)(C)C(=O)N[C@H](C(=O)N[C@@H](CCC(=O)O)C(=O)O)[C@@H](C)O
B5: Peptide 38 (peptide)
peptide: H[Aib]QGTFTSDVSK[αMeF]LDSK([AEEA-AEEA-γGlu-C18 diacid])RAQDFVEWLL[Aib]T-OH
modifications: N-terminus assumed
SMILES: CC(C)C[C@H](NC(=O)[C@H](Cc1c[nH]c2ccccc12)NC(=O)[C@H](CCC(=O)O)NC(=O)[C@@H](NC(=O)[C@H](Cc1ccccc1)NC(=O)[C@H](CC(=O)O)NC(=O)[C@H](CCC(N)=O)NC(=O)[C@H](C)NC(=O)[C@H](CCCNC(=N)N)NC(=O)[C@H](CCCCNC(=O)COCCOCCNC(=O)COCCOCCNC(=O)CC[C@H](NC(=O)CCCCCCCCCCCCCCCCC(=O)O)C(=O)O)NC(=O)[C@H](CO)NC(=O)[C@H](CC(=O)O)NC(=O)[C@H](CC(C)C)NC(=O)[C@](C)(Cc1ccccc1)NC(=O)[C@H](CCCCN)NC(=O)[C@H](CO)NC(=O)[C@@H](NC(=O)[C@H](CC(=O)O)NC(=O)[C@H](CO)NC(=O)[C@@H](NC(=O)[C@H](Cc1ccccc1)NC(=O)[C@@H](NC(=O)CNC(=O)[C@H](CCC(N)=O)NC(=O)C(C)(C)NC(=O)[C@@H](N)Cc1c[nH]cn1)[C@@H](C)O)[C@@H](C)O)C(C)C)C(C)C)C(=O)N[C@@H](CC(C)C)C(=O)NC(C)(C)C(=O)N[C@H](C(=O)O)[C@@H](C)O
B6: Peptide 33 (peptide)
peptide: H[Aib]QGTFTSDVSK[αMeF]LDSK([AEEA-AEEA-γGlu-C18 diacid])RAQDFVQWLE[Aib]T-OH
modifications: N-terminus assumed
SMILES: CC(C)C[C@H](NC(=O)[C@H](Cc1c[nH]c2ccccc12)NC(=O)[C@H](CCC(N)=O)NC(=O)[C@@H](NC(=O)[C@H](Cc1ccccc1)NC(=O)[C@H](CC(=O)O)NC(=O)[C@H](CCC(N)=O)NC(=O)[C@H](C)NC(=O)[C@H](CCCNC(=N)N)NC(=O)[C@H](CCCCNC(=O)COCCOCCNC(=O)COCCOCCNC(=O)CC[C@H](NC(=O)CCCCCCCCCCCCCCCCC(=O)O)C(=O)O)NC(=O)[C@H](CO)NC(=O)[C@H](CC(=O)O)NC(=O)[C@H](CC(C)C)NC(=O)[C@](C)(Cc1ccccc1)NC(=O)[C@H](CCCCN)NC(=O)[C@H](CO)NC(=O)[C@@H](NC(=O)[C@H](CC(=O)O)NC(=O)[C@H](CO)NC(=O)[C@@H](NC(=O)[C@H](Cc1ccccc1)NC(=O)[C@@H](NC(=O)CNC(=O)[C@H](CCC(N)=O)NC(=O)C(C)(C)NC(=O)[C@@H](N)Cc1c[nH]cn1)[C@@H](C)O)[C@@H](C)O)C(C)C)C(C)C)C(=O)N[C@@H](CCC(=O)O)C(=O)NC(C)(C)C(=O)N[C@H](C(=O)O)[C@@H](C)O
B7: Peptide 36 (peptide)
peptide: H[Aib]QGTFTSDVSK[αMeF]LDSK([AEEA-AEEA-γGlu-C18 diacid])RARDFVQWLL[Aib]T-OH
modifications: N-terminus assumed
SMILES: CC(C)C[C@H](NC(=O)[C@H](Cc1c[nH]c2ccccc12)NC(=O)[C@H](CCC(N)=O)NC(=O)[C@@H](NC(=O)[C@H](Cc1ccccc1)NC(=O)[C@H](CC(=O)O)NC(=O)[C@H](CCCNC(=N)N)NC(=O)[C@H](C)NC(=O)[C@H](CCCNC(=N)N)NC(=O)[C@H](CCCCNC(=O)COCCOCCNC(=O)COCCOCCNC(=O)CC[C@H](NC(=O)CCCCCCCCCCCCCCCCC(=O)O)C(=O)O)NC(=O)[C@H](CO)NC(=O)[C@H](CC(=O)O)NC(=O)[C@H](CC(C)C)NC(=O)[C@](C)(Cc1ccccc1)NC(=O)[C@H](CCCCN)NC(=O)[C@H](CO)NC(=O)[C@@H](NC(=O)[C@H](CC(=O)O)NC(=O)[C@H](CO)NC(=O)[C@@H](NC(=O)[C@H](Cc1ccccc1)NC(=O)[C@@H](NC(=O)CNC(=O)[C@H](CCC(N)=O)NC(=O)C(C)(C)NC(=O)[C@@H](N)Cc1c[nH]cn1)[C@@H](C)O)[C@@H](C)O)C(C)C)C(C)C)C(=O)N[C@@H](CC(C)C)C(=O)NC(C)(C)C(=O)N[C@H](C(=O)O)[C@@H](C)O

One test has as its target human GLP-1 receptor (human, UniProt P43220). Description: cell-based or functional assay.
With B1, the “cAMP production EC50” value worked out at 0.0824 nM.

As for B2, the “cAMP production EC50” value stood at 0.0686 nM.

Regarding B3, the “cAMP production EC50” value is 0.172 nM.

Take B4: the “cAMP production EC50” value was 0.0761 nM.

As for B5, the “cAMP production EC50” value turned out to be 0.0756 nM.

H[Aib]QGTFTSDVSK[αMeF]LDTKRARDFVQWLLE[Aib]G-OH (not fully specified (residue 17)) [Peptide 520]: the “cAMP production EC50” value came to 0.543 nM.

As to B6, the “cAMP production EC50” value came to 0.213 nM.

Turning to B7, the “cAMP production EC50” value turned out to be 0.0431 nM.

The next test addresses human glucagon receptor (human, UniProt P47871). The test is described as follows: cell-based or functional assay.
On to B1, for which the “cAMP production EC50” value came out at 0.161 nM.

As for B2, the “cAMP production EC50” value was determined as 2.75 nM.

For B3, the “cAMP production EC50” value came to 0.386 nM.

As for B4, the “cAMP production EC50” value was determined as 0.194 nM.

On to B5, for which the “cAMP production EC50” value turned out to be 0.441 nM.

Consider H[Aib]QGTFTSDVSK[αMeF]LDTKRARDFVQWLLE[Aib]G-OH (not fully specified (residue 17)) [Peptide 520], for which the “cAMP production EC50” value was 1.62 nM.

With B6, the “cAMP production EC50” value was 0.548 nM.

As for B7, the “cAMP production EC50” value came out at 0.278 nM.

Source of the values: patent publication US12630600B2 (MEDIMMUNE LIMITED, priority 2022, dated 2026).
